The text below walks through data of patent US10081794B2, “System and method for electrospun biodegradable scaffold for bone repair” (New Jersey Institute of Technology, priority 2011, dated 2018).

The test deals with hMSCs. Kind of test: Serum starvation study of PDGF-BB bioactivity (cell proliferation). Type of test: cell-based, human. Particulars: Invitrogen versus Prospec Bio. The method, then:
At the initiation of this study, arbitrarily called “Day −2”, a vial of hMSCs was thawed, resuspended in 10% FBS DMEM, and seeded into 96 well TCPS plates at a seeding density of 12,500 cells/cm2 or 4000 cells/well. On “Day −1”, 24 hours following the initial cell seeding, the media in the wells was changed with DMEM prepared with various concentrations of FBS (Table 6). On Day 0, the media was supplemented with various concentrations of PDGF-BB (Prospec Bio or Invitrogen). PDGF-BB supplementation was done either once at Day 0, or continually for every 48-72 hours until Day 7.
At Days 4 and 7 following growth factor induction, cells were harvested for cell proliferation assay. Briefly, cell lysates (n=3 per media and PDGF-BB condition) were prepared by lysing cells in 0.1% Triton X-100. The PicoGreen reagent fluorescently labels double stranded DNA which was correlated to cell number using a standard curve. The PicoGreen reagent was added to the cell lysates and the fluorescence was detected with a plate reader at 485 nm excitation/528 nm emission.

B1: PDGF-BB from Invitrogen: Recombinant human PDGF-BB purchased from Invitrogen, used for subsequent studies (protein, UniProt P01127 82-190, looked up)
Platelet-derived growth …: SLGSLTIAEPAMIAECKTRTEVFEISRRLIDRTNANFLVWPPCVEVQRCSGCCNNRNVQCRPTQVQLRPVQVRKIEIVRKKPIFKKATVTLEDHLACKCETVAAARPVT
As for B1, the “bioactivity of PDGF-BB (cell proliferation studies)” value is recorded as “more bioactive”.
